The results in this text go back to patent US20230348614A1 (VISTERRA, published 2023).

One assay has as its target T1, A168S (Homo sapiens, UniProt P18827).
T1 construct: clone of the alanine scanning library on HEK-293T cells; m17 with one substitution (alanine changed to serine); also called CD138 A168S
T1 sequence (CD138 (SDC1), full length, point mutant, looked up): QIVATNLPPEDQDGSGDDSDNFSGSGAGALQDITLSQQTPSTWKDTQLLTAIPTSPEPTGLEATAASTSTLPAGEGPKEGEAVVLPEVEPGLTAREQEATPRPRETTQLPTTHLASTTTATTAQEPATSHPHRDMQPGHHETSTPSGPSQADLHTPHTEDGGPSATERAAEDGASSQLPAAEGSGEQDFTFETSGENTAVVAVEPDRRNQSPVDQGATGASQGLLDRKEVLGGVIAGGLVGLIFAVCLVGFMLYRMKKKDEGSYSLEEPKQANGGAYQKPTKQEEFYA
Description: alanine scan: flow cytometry on HEK-293T cells expressing the mutant clone, 4320 Fab 0.50 ug/mL, normalised to WT CD138; Range %WT Binding 3; Normalized 4320 vs. BB4 57.9. Here is the method: (§1) Serial dilutions of each MAb were tested for immunoreactivity against cells expressing target protein (WT) or vector alone. Validation of target expression and optimization of detection and binding of anti-CD138 antibodies both by flow cytometry was completed in replicate (N=4). The optimal screening concentration for each MAb was determined based on the raw signal values and signal-to-background calculations specifically optimized for each test article. Optimized parameters included the use of 10% goat serum as blocking reagent. Primary antibody staining was for 60 minutes at 25° C. Wash buffer include phosphate buffered saline (divalent metal ion free), pH 7.4. […] Secondary antibodies were diluted 1:400 and incubated for 30 minutes at 25° C.
(§2) Library screens of very-high-affinity mAbs can fail to yield critical residues for antibody binding due to deficiencies of such an assay to detect and differentiate critical vs. less critical binding based on affinity and quantification of cell binding. One common approach in the literature is the use of monovalent antibody derived fragments such as Fab usually weakens binding sufficiently to allow identification of critical residues for binding. […] Binding of each test Ab to each mutant clone in the alanine scanning library was determined, in duplicate, and likewise evaluated by flow cytometry.

The target in the next assay is T2, L107A (Homo sapiens, UniProt P18827).
T2 construct: clone of the alanine scanning library on HEK-293T cells; m17 with one substitution; also called CD138 L107A
T2 sequence (CD138 (SDC1), full length, point mutant, looked up): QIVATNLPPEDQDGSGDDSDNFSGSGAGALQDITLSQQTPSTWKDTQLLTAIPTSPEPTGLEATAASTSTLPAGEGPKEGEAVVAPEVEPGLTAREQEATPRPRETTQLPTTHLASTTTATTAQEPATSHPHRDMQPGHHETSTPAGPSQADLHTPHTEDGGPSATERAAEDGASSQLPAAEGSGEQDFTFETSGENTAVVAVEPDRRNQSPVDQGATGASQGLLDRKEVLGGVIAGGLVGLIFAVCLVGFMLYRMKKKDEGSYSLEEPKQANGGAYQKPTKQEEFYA
Description: alanine scan: flow cytometry on HEK-293T cells expressing the mutant clone, 4320 Fab 0.50 ug/mL, normalised to WT CD138; Range %WT Binding 13; Normalized 4320 vs. BB4 16.8. Here is the method: as §1, §2

A further assay concerns the target T3, G241A (Homo sapiens, UniProt P18827).
T3 construct: clone of the alanine scanning library on HEK-293T cells; m17 with one substitution; also called CD138 G241A
T3 sequence (CD138 (SDC1), full length, point mutant, looked up): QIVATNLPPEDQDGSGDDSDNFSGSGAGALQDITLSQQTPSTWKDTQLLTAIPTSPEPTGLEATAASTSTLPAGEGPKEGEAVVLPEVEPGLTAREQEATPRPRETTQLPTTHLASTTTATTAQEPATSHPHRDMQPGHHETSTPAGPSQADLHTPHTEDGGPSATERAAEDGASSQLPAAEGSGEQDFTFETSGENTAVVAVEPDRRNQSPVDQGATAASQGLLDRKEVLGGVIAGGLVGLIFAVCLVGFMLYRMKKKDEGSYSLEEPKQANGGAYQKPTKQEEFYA
Description: alanine scan: flow cytometry on HEK-293T cells expressing the mutant clone, 4320 Fab 0.50 ug/mL, normalised to WT CD138; Range %WT Binding 14; Normalized 4320 vs. BB4 53.5. Here is the method: as §1, §2

The next assay addresses T4, D210A (Homo sapiens, UniProt P18827).
T4 construct: clone of the alanine scanning library on HEK-293T cells; m17 with one substitution; also called CD138 D210A
T4 sequence (CD138 (SDC1), full length, point mutant, looked up): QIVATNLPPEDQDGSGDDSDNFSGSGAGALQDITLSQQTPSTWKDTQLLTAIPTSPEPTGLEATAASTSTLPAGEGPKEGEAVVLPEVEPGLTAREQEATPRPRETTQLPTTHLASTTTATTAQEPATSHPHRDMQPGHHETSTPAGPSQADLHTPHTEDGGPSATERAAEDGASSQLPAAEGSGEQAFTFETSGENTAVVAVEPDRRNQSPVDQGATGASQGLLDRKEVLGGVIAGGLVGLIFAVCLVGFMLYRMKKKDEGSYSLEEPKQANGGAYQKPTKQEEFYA
Description: alanine scan: flow cytometry on HEK-293T cells expressing the mutant clone, 4320 Fab 0.50 ug/mL, normalised to WT CD138; Range %WT Binding 15; Normalized 4320 vs. BB4 56.7. Here is the method: as §1, §2

A further assay concerns the target T5, T188A (Homo sapiens, UniProt P18827).
T5 construct: clone of the alanine scanning library on HEK-293T cells; m17 with one substitution; also called CD138 T188A
T5 sequence (CD138 (SDC1), full length, point mutant, looked up): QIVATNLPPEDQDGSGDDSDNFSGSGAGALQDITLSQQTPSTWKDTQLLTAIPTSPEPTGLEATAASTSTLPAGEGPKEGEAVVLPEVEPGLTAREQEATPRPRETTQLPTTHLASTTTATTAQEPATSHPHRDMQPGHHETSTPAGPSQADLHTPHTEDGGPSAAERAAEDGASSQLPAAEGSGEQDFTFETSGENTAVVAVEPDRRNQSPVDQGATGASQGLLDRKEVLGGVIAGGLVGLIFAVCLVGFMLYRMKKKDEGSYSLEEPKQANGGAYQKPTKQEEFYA
Description: alanine scan: flow cytometry on HEK-293T cells expressing the mutant clone, 4320 Fab 0.50 ug/mL, normalised to WT CD138; Range %WT Binding 29; Normalized 4320 vs. BB4 59.8. Here is the method: as §1, §2

B1: Fab fragment of mAb 4320 (Fab, V domains shown)
VH: QVQLVQSGAEVKKPGASVKVSCKASGYSFSSYYMHWVRQAPGQGLEWMGTIHPSDSTTNYNQKFQGRVTMTVDTSTRTAYMELSSLRSEDTAVYYCANFVYWGQGTTVTVSS
VL: DIVMTQTPLSLSVTPGQPASISCKSSKSLLYKDGKTYLNWFLQKPGQSPQLLIYVVSTRASGVPDRFSGSGSGTDFTLKISRVEAEDVGVYYCQQLVEYPYTFGQGTKLEIKR
modifications: N-terminal Q1 observed as pyroglutamic acid (PCA) in the 138-2-5 complex
notes: In the crystal structures heavy chain residues 1-213 were traced; also called Fab4320
As for B1, the “Mean %WT Binding” value with A168S came out at 44.9 %WT; in the assay with L107A it was 18.2 %WT; with G241A, 53.5 %WT; with D210A, 42.7 %WT; with T188A, 57.4 %WT.
